{"source": "patent US20130164214A1", "biological_target": "HLA-DR (human)", "test": "cell-based or functional assay"}
{"binder": "hL243γ4P (IMMU-114), humanized IgG4 anti-HLA-DR antibody (antibody, from a related filing, V domains shown) VH: QVQLQQSGSELKKPGASVKVSCKASGFTFTNYGMNWVKQAPGQGLKWMGWINTYTREPTYADDFKGRFAFSLDTSVSTAYLQISSLKADDTAVYFCARDITAVVPTGFDYWGQGSLVTVSS VL: DIQLTQSPSSLSASVGDRVTITCRASENIYSNLAWYRQKPGKAPKLLVFAASNLADGVPSRFSGSGSGTDYTFTISSLQPEDIATYYCQHFWTTPWAFGGGTKLQIKR", "values": [{"measurement": "reduction of live mDC1 in human PBMCs after 3 days with antibody, flow cytometry", "value": 59.2, "unit": "%"}, {"measurement": "reduction of live mDC2 in human PBMCs after 3 days with antibody, flow cytometry", "value": 85, "unit": "%"}, {"measurement": "reduction of pDCs in human PBMCs, flow cytometry", "value": 50, "unit": "%"}]}
